Experiment: soluble on expression in E. coli; label from the status in PepcDB or PDB records

| Sequence | soluble on expression in E. coli |
| --- | --- |
| MSDAGGDVQVAPAAVAQGPMDKEGALRAVLRAAHHADGLAKGLHETCKALDKREAHFCVLAENCDEPQYVKLVETLCAEHQIPLIKVADKKIIGEYCGLCKYDKEGKARKVVGCSSAVVTNWGNEEQGRAILTDYFASKN | not soluble |
| MSKLEELDIVSNNILILKKFYTNDEWKNKLDSLIDRIIKAKKIFIFGVGRSGYIGRCFAMRLMHLGFKSYFVGETTTPSYEKDDLLILISGSGRTESVLTVAKKAKNINNNIIAIVCECGNVVEFADLTIPLEVKKSKYLPMGTTFEETALIFLDLVIAEIMKRLNLDESEIIKRHCNLL | soluble |
| MRCILLGSGTSTGVPEVGCHCRVCRSEDRHDKRTRTSLLIITDAGKRILIDCSPDFRQQALFAGIDSLDAVLLTHEHFDHVGGLDDLRTICWHRELAVYAEQNVLDSIRDRLHYVFRKNPYPGTPLLKLCEVKPDMPFQVADLTVEPLRIMHGRLPILGYKIGEMAFLTDMKDIAAEEIECLKSCRLLFINGLRYRKEHPSHQTIEQAIDTIGQIGNPESVLIHLSHHAPLHQEHLEILPPHIHSGYDGLEAIIDEKGIRIKDFEPHVSRSEYHYQDCGRIGYESALTLQRKLFHDAVADKLENRKPQNTLLFCEHEPVLTLGKHGHEENLLLSESELKSRDIRLFHIERGGDITYHGPGQITGYPIFDLEQYGIGLRSYIEMLEQCIIDLIAIFGLKGERSAGASGVWLDPDIPGRTRKICAIGVKSSRHITMHGFALNVNTDLDYFKLINPCGFSDRGVTSISRELGREQDFILVKQQLEAVFRRNFGAL | not soluble |
| MSQNASVGIVMPQKIPFEMPLVLENGKTLPRFDLMIETYGELNAEKNNAVLICHALSGNHHVAGRHSAEDKYTGWWDNMVGPGKPIDTERFFVVGLNNLGGCDGSSGPLSINPETGREYGADFPVVTVKDWVKSQAALADYLGIEQWAAIVGGSLGGMQALQWTISYPERVRHALVIASAPKLSTQNIAFNDVARQAILTDPDFNEGHYRSHNTVPARGLRIARMMGHITYLAEDGLGKKFGRDLRSNGYQYGFGVEFEVESYLRYQGDKFVGRFDANTYLLMTKALDYFDPAADFGDSLTRALQNVKAKFFVASFSTDWRFAPERSHELVKALIAAQKSVQYIEVKSAHGHDAFLMEDEAYMRAVAAYMNNVYKECQQ | not soluble |
| MSLIPIVASSPSPLISGDGDDALTATAVALATTAVHAADDLKIALIYGKTGPLEAYAKQTETGLMMGLEYATKGTMTLDGRKIVVITKDDQSKPDLSKAALAEAYQDDGADIAIGTSSSAAALADLPVAEENKKILIVEPAVADQITGEKWNRYIFRTGRNSSQDAISNAVAIGKQGVTIATLAQDYAFGRDGVAAFKEALAKTGATLATEEYVPTTTTDFTAVGQRLFDALKDKPGKKIIWVIWAGGGDPLTKLQDMDPKRYGIELSTGGNILPALAAYKRLPGMEGATYYYYDIPKNPINEWLVTEHQKRFNAPPDFFTAGGFSAAMAVVTAVQKAKSTDTEKLIAAMEGMEFDTPKGKMVFRKEDHQALQSMYHFKVKVDPAVAWAVLEPVRELKIEEMNIPIKNKGIITITTDPNSSSVDKLAAALEHHHHHH | soluble |
| MSLDIQSLDIQCEELSDARWAELLPLLQQCQVVRLDDCGLTEARCKDISSALRVNPALAELNLRSNELGDVGVHCVLQGLQTPSCKIQKLSLQNCCLTGAGCGVLSSTLRTLPTLQELHLSDNLLGDAGLQLLCEGLLDPQCRLEKLQLEYCSLSAASCEPLASVLRAKPDFKELTVSNNDINEAGVRVLCQGLKDSPCQLEALKLESCGVTSDNCRDLCGIVASKASLRELALGSNKLGDVGMAELCPGLLHPSSRLRTLWIWECGITAKGCGDLCRVLRAKESLKELSLAGNELGDEGARLLCETLLEPGCQLESLWVKSCSFTAACCSHFSSVLAQNRFLLELQISNNRLEDAGVRELCQGLGQPGSVLRVLWLADCDVSDSSCSSLAATLLANHSLRELDLSNNCLGDAGILQLVESVRQPGCLLEQLVLYDIYWSEEMEDRLQALEKDKPSLRVIS | soluble |
| MGHHHHHHSHMSKESVTVAGIDCGTNSIRLKIARVDADGMHEVVPRILRVIRLGQDVDKTHRFADEALERAYVAAREFAGVIAEHPIDGLRFVATSATRDAENREEFEDEIERILGVRPEVIPGTEEADLSFLGATSVVNRDDLPAPYLVVDLGGGSTELVIGGDGVSAPTTQVQGAFSMNIGSVRMTERHLTNDPPTQTQIDEAVADVDEHIDEAFRTVDAGKARTIIGVSGTVTTMTALAMGLKEYDHTVVDGHRLSFEDAYAVDDKFLRMTRAERREYKTIHPGRIDVVGGGAVVWSRVLARVSEAAKADHGEAIDSFVASEHGLLDGIVLDYGRRLLAQ | soluble |
| MEKLAAKVLENFDFLKKLLRDRAECGESEITIYDDPVTIVVKRDRIDFFINEEYHGSVGVGFNTLSDEIREEARLWLEGLAGMKFKRYAVRR | not soluble |
| MLRATNNRRTSNNVEKDSLQMAKHGNGPLKPVNAQGLQTKREAREILALKPSNPAPVETAQKSQRINLQDAETKCLAMADDIYKYLVHHEKKYLLEECFMEGGEPTPKMRRILVDWLVQVHVRFHLTPETLHLTVFILDRMLQKKVTSKADLQLLGISAMFVASKFEEVYLPDIHDYEFITENTYSKKQILAMEQTILNSLNFDLSCPSSLVFLRCLSRILSENDASPIDNQAFCYTYNISKCLGELALLDSVMASTPRSHIASASMIIALEVHPVDGIEAENAVSVICKQLGASKKVIEDAVALLAEVSYKNFKQGKLVAIKNKYQSSKLAQVSNLMTDDVLEKINRMGQNAKVDASEME | soluble |
| MCGQKFELKIDNVRFVGHPTLLQHALGQISKTDPSPKREAPTMILFNVVFALRANADPSVINCLHNLSRRIATVLQHEERRCQYLTREAKLILALQDEVSAMADGNEGPQSPFHHILPKCKLARDLKEAYDR | not soluble |
| MALVNSILKANEYSFKVPEFDGKNVSSILGFDSNQLPANAPIEDRRSAATCLQTRGMLLGVFDGHAGCACSQAVSERLFYYIAVSLLPHETLLEIENAVESGRALLPILQWHKHPNDYFSKEASKLYFNSLRTYWQELIDLNTGESTDIDVKEALINAFKRLDNDISLEAQVGDPNSFLNYLVLRVAFSGATACVAHVDGVDLHVANTGDSRAMLGVQEEDGSWSAVTLSNDHNAQNERELERLKLEHPKSEAKSVVKQDRLLGLLMPFRAFGDVKFKWSIDLQKRVIESGPDQLNDNEYTKFIPPNYHTPPYLTAEPEVTYHRLRPQDKFLVLATDGLWETMHRQDVVRIVGEYLTGMHHQQPIAVGGYKVTLGQMHGLLTERRTKMSSVFEDQNAATHLIRHAVGNNEFGTVDHERLSKMLSLPEELARMYRDDITIIVVQFNSEGHHHHHH | soluble |
| MGAQGSRVDFKQVVLDVTSKPGKDDETFWDQAWWPDSVNEIFAMISGEDIRKLRDESPKNLATLVYKTVEKLQFSRNHPATIDQKKTINAIRLLTRIVPYLLEDAEWRGYFWSPIPHGDAAKPLAAVLLETLSDLLFCPEFTITHANGQKIDDLSTIDSCEYIWEAGVGSGNKPPMVALHYQNRTEILKLLLTCFAELIYAPVSDETRLRWVIHFTSVTNPHVLPIFTSLLNIVCAYDPVGYGLPYNYLLFNDSREPLVEIALQVLIVCLDKETQPNTDDSGYKDNYFINYLSRIHREEDFDFMLKGITRLLSNPIHSSSSYLPNSTKRVNFHQELLVLLWKCCEINQKFMFYVLKTSDVLDILVPILYHISDARNDSGRVGLIHMGVFIILLLSGERNFGVRLNKPYTAKANINVQTFTGTHADLLILVIHKLITTGNYRLQTLFDCFLTIMVNVSPYMKSLSMVAANKLVHLVEAFSTPWFLFSSPTNPQLVFSLLEVFNNVIQYQFDGNSNLIYTIIRKRNVFYQLSNLSTDAASIAKTLSGRKSKSANRDEMVDQLKSPTSTAPPEIPAADAPAAQTLGGVSTTTGLAATPALASMTGNVGNWEERPESSQDNEWIATQEWADAWKSKLPLQTIMRLLQVLVPQVEKICIDKGLTDESEILKFLQHGTLVGLLPVPHPIVIRRYQTNIGTNHWFRIYMWGVIYLKHTQPPIWYDTDVKLFEVQRA | not soluble |
| MTATWSVNKKIFLQNAITVKNNQPLMAVVKNNAYHYDLEFAVTQFIHAGIDTFSTTSLREAIQIRQLAPDATIFLMNAVYEFDLVREHQIHMTLPSLTYYYNHKNDLAGIHVHLEFENLLHRSGFKDLNEIKEVLKDHHHNQNAKMIISGLWTHFGYADEFDVSDYNVERSQWMEIVEALLSEGYQFDLIHAQNSASFYREGQILLPHHTHARVGIALYGSRPYSSLNQHDIVQSLTLKAHVIQVREVQAGDYCGYSFAFEVTKNNTKLAVVDIGYGDGILRTRAKHEALINGKRYPIRALMMSHMFVEVDGNVHAQDEVILYNNDIRIDEYTFKGVGANSEQLSAMNHDSLKKEYISNDC | not soluble |
| MGSDKIHHHHHHMIFINSRFLTQDVSGVQRYAEQMCRALQRLRNDLIFVAPRNIRLHDCAKALDVQHIGHATGHLWEQVDLPLHLKRKGNPLLVSISNTGPMFYANQIATHHDINYVRYPQSYTRLFRLAYRTITPILLSRARTLITGSSFSRGEIASFYGYAEDKVLVLPAAVSDDFTPRAVHRDQPDYLLAVSSPAAHKNFNRMIQAFLSLRGHADLQLHIVGAASSLFADPNLQRLACRDPRIRFLGRLSDAELIEQYQGASAFVFPSLYEGFGIPPLEAQACGCPVLAANAASIPEVLQASALYFDPLDVSHMAAAMHRVLSDAPLRQALRRQGLKNVQRFSWEISAQRLSQRIDALLEPAVQGKHHVAPESSPGKP | not soluble |
| MQALILEQQDGKTLASVQHLEESQLPAGDVTVDVHWSSLNYKDALAITGKGKIIRHFPMIPGIDFAGTVHASEDPRFHAGQEVLLTGWGVGENHWGGLAERARVKGDWLVALPAGLSSRNAMIIGTAGFTAMLCVMALEDAGIRPQDGEVVVTGASGGVGSTAVALLHKLGYQVAAVSGRESTHGYLKSLGANRILSRDEFAESRPLEKQLWAGAIDTVGDKVLAKVLAQMNYGGCVAACGLAGGFALPTTVMPFILRNVRLQGVDSVMTPPARRAEAWARLVKDLPESFYAQAATEITLADAPKFADAIINNQVQGRTLVKIK | not soluble |
| MDVGKRLKEVREMYGLSQRELAKRVGLTNSTISMIERDAVSPSISSLKKILEGVSLTVTEFFTLEIPTESQVVFKKDTLVDVGSDGVELHLVGTPQPDSKLAFLIERYQPGSSTGKDMITHIGEEAGTVIEGSIEITVAGRSFKLTKGDSYKFSTSLPHKFKNTSKKVCKIISAHTPPSF | not soluble |
| MDNELTSRPDSIMDTEPTTLPDSAMDTKPTNLPDFPSTSQEPVSRRTRSRTLSDNSNAVWKRERRSRETSQESESRLRMDWERKKEKRASMSEEEKAEMKYKKRVWMKKKRNEVAKTHDTSSVANPNYLGSMRCVCKNCNARFFQGIHFFKV | not soluble |
| MKKVFIPINTKIPVERQFPNRVPIWGNYEFIISTKEPEQEYDYVVVLDDIEYSLRLMCCKQNICLFTGEPPYVKLYPRKYLNQFGHVYTCQSSVLKRDNACLSYPALPWMLYYNFYNDKQKEELLIDYDFLKNRPTLQRKNKICLFTSNKKISKGHIERIKFALKLQEEMPDLIDIYGSGFTNVDYKYEVMVQYKYAIVIENCSYPYYWTEKLADTFLSGCYPIYFGDPHIGDFFSKEEMAVIDIRNFDESKQTIKKIIDNNVYEKQYENICHARDKILDKYNMFSLISSTLDSIPAKLDKEKLLLSPMRLSVFDRIRNRIYRLFYLEHHHHHH | not soluble |
| MTVTSMLDNVLRIATRQSPLALWQAHYVKDALMATHPGLTVELVPMVTRGDVILDTPLAKVGGKGLFVKELEIALLEKRADIAVHSMKDVPVAFPDGLGLVTICEREDPRDAFVSNKYHSLDDLPAGSIVGTSSLRRQCQLAERRPDLIIRSLRGNVGTRLGKLDNGDYDAIILAVAGLKRLGLESRIRTALPPDVSLPAVGQGAVGIECRLDDARTQALLAPLNHSQTALRVTAERAMNTRLEGGCQVPIGSYAEIINGEIWLRALVGAPDGSVMVRGERRGSPEQAEQMGISLAEELLENGARAILTEVYNGETPA | not soluble |

Source: the DeepSol protein solubility set
